# Experimental data taken from the supplement of paper PMC10724198.
# ± gives the standard deviation of the averaged measurements.
# System: Saccharomyces cerevisiae
# Experiment: protein stability index of tFT-peptide fusion (C-terminal peptide) (PSI (0-1 scale)); higher = more stable (slower turnover)
# Conditions: genetic background: wild type; temperature: 30 C
# 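Further: PSI is a weighted mean of sequencing reads over stability bins, variants kept only with over 10 reads, mCherry proximal and sfGFP distal, peptide attached via GGGS linker.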
row,Sequence,protein stability index
1,RLHFSSPLLHPP,0.601 ± 0.041
2,RLHPSFPPPPPQ,0.704 ± 0.029
3,RLIGLLRKTSKK,0.719 ± 0.089
4,RLLSGLAHRATR,0.672 ± 0.032
5,RLNKPRAPEKKA,0.717 ± 0.11
6,RLNQSKSTKYSE,0.651 ± 0.012
7,RLPPPLALDFRP,0.6308 ± 0.0063
8,RLPRSPLHPSVP,0.738 ± 0.016
9,RLPVIPRLIPSS,0.635 ± 0.028
10,RLPVPRSLWSSN,0.709 ± 0.013
11,RLRAFSRSVSSP,0.734 ± 0.11
12,RLRCRRPKPRRC,0.682 ± 0.035
13,RLRRPSSGPFMF,0.685 ± 0.037
14,RLSTPPAPQRPS,0.666 ± 0.013
15,RLTPLSSSRLPP,0.6556 ± 0.0043
16,RLVGCWGRVKFE,0.6927 ± 0.003
17,RLVGPFSSLRLF,0.649 ± 0.0072
18,RLYGCNYAQSRR,0.712 ± 0.047
19,RMGWTRCRGGYG,0.5865 ± 0.0044
20,RMTRIKKKINKS,0.719 ± 0.034
21,RNAGIQVTGQAF,0.704 ± 0.0079
22,RNKKKAKKEENR,0.664 ± 0.048
23,RNKNYIDEEKER,0.661 ± 0.037

row,Sequence,protein stability index
1,RNLFRRAPNQGL,0.723 ± 0.043
2,RNLPAHQARPDE,0.6751 ± 0.003
3,RNNLSLALPREW,0.725 ± 0.018
4,RNRYCNLRVGFD,0.679 ± 0.011
5,RNTRVSLPPRGQ,0.63 ± 0.041
6,RNVKETSNRREL,0.627 ± 0.11
7,RPDACTRFGLRV,0.678 ± 0.013
8,RPGLWGNEVGGN,0.735 ± 0.013
9,RPGNGLTLPTAS,0.622 ± 0.072
10,RPKGREKGEGRG,0.733 ± 0.077
11,RPLCRSFPPASL,0.788 ± 0.058
12,RPLLHPRTGRSH,0.677 ± 0.014
13,RPLLPPVLPPPL,0.684 ± 0.019
14,RPLLPYHPTRFD,0.721 ± 0.048
15,RPLSPPRPPPPS,0.678 ± 0.014
16,RPPGPPPPAPFP,0.711 ± 0.015
17,RPPHQAPPLPPS,0.704 ± 0.062
18,RPPHRRRDKKVS,0.701 ± 0.031
19,RPPPPPHRTGDC,0.607 ± 0.02
20,RPPPPPPPRFPP,0.706 ± 0.041
21,RPPPRPASPGSP,0.634 ± 0.039
22,RPQHSPSVLVSY,0.5884 ± 0.005
23,RPRSPRSLPPPP,0.541 ± 0.043

row,Sequence,protein stability index
1,RPRVAVPHTSLP,0.714 ± 0.069
2,RPSPSLPSPSPP,0.843 ± 0.081
3,RPTRPCSTPTAP,0.78 ± 0.012
4,RPYLARQTTAPS,0.6575 ± 0.0033
5,RQAIGRDTPRDP,0.649 ± 0.0073
6,RQGHKRVKISGM,0.599 ± 0.091
7,RQKTKRKDQKIK,0.709 ± 0.023
8,RQSSPPPRIAPT,0.6783 ± 0.0057
9,RRATCYGLGPTM,0.681 ± 0.013
10,RRERKARREAPR,0.682 ± 0.042
11,RRESTRSRWYEG,0.762 ± 0.14
12,RRGAVGAAGLKG,0.68884 ± 7e-05
13,RRGEVTQTCGCE,0.549 ± 0.054
14,RRGKGERSQFAP,0.647 ± 0.017
15,RRLNTRQERSNK,0.72 ± 0.032
16,RRLRCNDCPFVV,0.755 ± 0.085
17,RRLSGGNLLLLA,0.5914 ± 0.0018
18,RRLVLPFSRLLR,0.656 ± 0.019
19,RRNGVVGRLGGV,0.678 ± 0.032
20,RRNLSVSKRKWP,0.689 ± 0.014
21,RRPPVFCIPLFS,0.639 ± 0.015
22,RRPSRLLGPERI,0.717 ± 0.025
23,RRPTKGGPPTLC,0.67 ± 0.032

row,Sequence,protein stability index
1,RRQWVLEQEGGT,0.732 ± 0.056
2,RRRAINIPNNRL,0.712 ± 0.016
3,RRRGRAEREPSS,0.689 ± 0.05
4,RRRGSLGGVRGN,0.707 ± 0.058
5,RRRSGGVIWNRV,0.669 ± 0.009
6,RRRTTTNFKVGH,0.672 ± 0.014
7,RRRVTVYAPVDS,0.713 ± 0.015
8,RRRVWIQQRRKI,0.5481 ± 0.0053
9,RRSLSPPRPRYM,0.7 ± 0.018
10,RRSTRAGWPGNW,0.5 ± 0.1
11,RRTEHPRTRAAR,0.692 ± 0.045
12,RRTGGEDKHARP,0.67 ± 0.02
13,RRWCVDLAMSFA,0.646 ± 0.016
14,RSCGKAYNLLPL,0.683 ± 0.052
15,RSDEGHDVLCLY,0.615 ± 0.083
16,RSFVEQQCVTYA,0.628 ± 0.11
17,RSGCGVVGVWEE,0.668 ± 0.032
18,RSGGGVARRSYR,0.662 ± 0.013
19,RSGISFGIWVCF,0.586 ± 0.048
20,RSGLVRSLPLLL,0.664 ± 0.069
21,RSGVRWGGGGGG,0.711 ± 0.035
22,RSGWSYRDRGPS,0.651 ± 0.082
23,RSICTEGLDIGC,0.659 ± 0.033

row,Sequence,protein stability index
1,RSLGLGGRGFWG,0.715 ± 0.099
2,RSLPPGFPSTLL,0.652 ± 0.014
3,RSMSQKSRIVSF,0.67 ± 0.14
4,RSNVGCDLKQTC,0.6556 ± 0.0027
5,RSPPAVSLVTIP,0.6911 ± 0.0052
6,RSPPLTPPPCPS,0.6931 ± 0.005
7,RSPQPPPSPSSG,0.692 ± 0.027
8,RSQICWFFFQCI,0.53 ± 0.036
9,RSRNAHAPPLAG,0.764 ± 0.065
10,RSRPPVHVAAAL,0.673 ± 0.074
11,RSTFSGSSTLVY,0.568 ± 0.0084
12,RSTIEHILLFFI,0.668 ± 0.015
13,RSVGMFSCRPVW,0.698 ± 0.017
14,RSWSSIASSSTM,0.7285 ± 0.0037
15,RTAKTSARATTL,0.705 ± 0.039
16,RTCRYRRVPAET,0.729 ± 0.066
17,RTEATFKTTPVG,0.687 ± 0.013
18,RTGTIPAPFHHE,0.675 ± 0.0074
19,RTHIKEYKNNKI,0.647 ± 0.035
20,RTNGNIKNVNIE,0.684 ± 0.07
21,RTNNIAKNSKNR,0.713 ± 0.058
22,RTPQPQPVVVRR,0.776 ± 0.041
23,RTPQSPRVSVRN,0.6586 ± 0.0027

row,Sequence,protein stability index
1,RTSKSLSKVESW,0.6415 ± 0.0031
2,RTTERLTRWEFG,0.686 ± 0.03
3,RTVRRNPHGRPR,0.6832 ± 0.005
4,RTWLLRTVFPRL,0.704 ± 0.024
5,RVAWAGGGAAGS,0.667 ± 0.065
6,RVEIKNKKKIRT,0.696 ± 0.083
7,RVGGGGGPSGVV,0.751 ± 0.029
8,RVGGGGWPSGVV,0.747 ± 0.047
9,RVGGGSGGEGRG,0.6553 ± 0.0043
10,RVGLGGRPSGGW,0.64 ± 0.047
11,RVGLRGGCGSNG,0.725 ± 0.029
12,RVHRETLLPTGQ,0.644 ± 0.036
13,RVLIPLASSPPL,0.77 ± 0.23
14,RVLPASRFSFLF,0.743 ± 0.036
15,RVMGWWGARVLG,0.697 ± 0.027
16,RVNTFHANKWRW,0.7134 ± 0.0013
17,RVPLSPSLRYFV,0.653 ± 0.026
18,RVPNLYLRSRKI,0.68 ± 0.034
19,RVQELEDGCAAE,0.658 ± 0.024
20,RVRGGAGRGKRE,0.686 ± 0.032
21,RVRLAPAPASIR,0.7458 ± 0.0047
22,RVRVGGPRESGQ,0.7054 ± 0.00082
23,RVSVYTFVSLSN,0.619 ± 0.035

row,Sequence,protein stability index
1,RVSYLLPFCSSV,0.762 ± 0.11
2,RVVYANSRVSDN,0.6479 ± 0.0055
3,RVWVGGPRESGQ,0.72118 ± 0.00022
4,RVYGSFFYVSLL,0.66 ± 0.13
5,RWCVGFRLCHDS,0.636 ± 0.019
6,RWGPGRSGSRGA,0.652 ± 0.022
7,RWGWGGYRGGVP,0.7572 ± 0.0061
8,RWLGNPLLQRYH,0.567 ± 0.043
9,RWLWRLDNRIVI,0.62081 ± 4.7e-05
10,RYCSLARSCPSG,0.678 ± 0.027
11,RYGTGQLDYCFI,0.717 ± 0.018
12,RYHQFSFQSNKS,0.764 ± 0.072
13,RYKISKKERIKK,0.663 ± 0.072
14,RYKTESKRDIEK,0.696 ± 0.062
15,RYLFAAVSFGYA,0.726 ± 0.032
16,RYLTLVTNLLCP,0.647 ± 0.0024
17,RYPLRPLLLPPP,0.741 ± 0.16
18,RYRDSKPDIVDC,0.723 ± 0.038
19,RYSPPPPPIPSP,0.715 ± 0.0022
20,RYTQQTTATYHN,0.749 ± 0.079
21,RYTTCPVLNPGV,0.618 ± 0.018
22,RYWCATHIGACL,0.788 ± 0.093
